Measurements published in paper PMC11804915, “Single-stranded DNA binding to the transcription factor PafBC triggers the mycobacterial DNA damage response”.

Key:
Conditions in all cases: protein: recombinant; tags: C-terminal Strep on PafC; copies: 1;1; label: FAM; single strand
[1] = molecular target: T1, PafBC WYL RR (Mycobacterium smegmatis, UniProt A4ZHT0;A0QZ41 1-331;1-318, R211A;R214A;R201A;R204A); experiment: EMSA; up to 16 uM; ssDNA EMSA: 22.5 mM Hepes-KOH pH 7.8, 135 mM NaCl, 20 mM KCl, 5 mM MgCl2, 1 mM DTT, 37 C 15 min, 10 nM DNA, 0-16 uM PafBC; RNAP EMSA: 20 mM Hepes-NaOH pH 8, 100 mM K-acetate, 36 mM NaCl, 10 mM MgCl2, 2 mM DTT, 37 C 30 min
T1 sequence 1: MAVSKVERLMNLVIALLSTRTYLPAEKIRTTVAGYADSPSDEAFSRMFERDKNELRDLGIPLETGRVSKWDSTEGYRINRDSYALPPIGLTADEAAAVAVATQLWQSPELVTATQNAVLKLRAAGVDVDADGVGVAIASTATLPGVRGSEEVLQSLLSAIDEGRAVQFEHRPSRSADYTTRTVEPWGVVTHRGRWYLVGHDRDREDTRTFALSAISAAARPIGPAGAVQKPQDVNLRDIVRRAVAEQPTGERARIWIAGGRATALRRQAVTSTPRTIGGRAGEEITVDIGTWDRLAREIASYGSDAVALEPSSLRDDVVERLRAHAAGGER
T1 sequence 2: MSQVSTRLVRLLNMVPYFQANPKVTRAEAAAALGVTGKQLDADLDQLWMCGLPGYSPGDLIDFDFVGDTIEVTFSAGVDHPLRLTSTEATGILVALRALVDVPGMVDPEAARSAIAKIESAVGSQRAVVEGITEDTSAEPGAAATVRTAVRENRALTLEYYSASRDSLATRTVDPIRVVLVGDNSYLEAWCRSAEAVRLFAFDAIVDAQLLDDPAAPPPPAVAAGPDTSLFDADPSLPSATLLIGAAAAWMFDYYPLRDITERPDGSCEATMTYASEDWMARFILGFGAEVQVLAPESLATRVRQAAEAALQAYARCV

[2] = molecular target: T2, PafBC, PafB R181A (Mycobacterium smegmatis, UniProt A4ZHT0;A0QZ41 1-331;1-318, R181A); experiment: as above
T2 sequence 1: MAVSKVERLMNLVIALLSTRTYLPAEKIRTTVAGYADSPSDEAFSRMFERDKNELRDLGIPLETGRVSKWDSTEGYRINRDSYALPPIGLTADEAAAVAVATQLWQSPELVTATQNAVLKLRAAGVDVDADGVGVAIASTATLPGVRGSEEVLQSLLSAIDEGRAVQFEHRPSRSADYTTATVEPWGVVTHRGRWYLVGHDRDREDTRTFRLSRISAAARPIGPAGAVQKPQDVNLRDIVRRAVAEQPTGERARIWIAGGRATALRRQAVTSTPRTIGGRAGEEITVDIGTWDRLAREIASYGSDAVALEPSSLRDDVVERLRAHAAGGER
T2 sequence 2: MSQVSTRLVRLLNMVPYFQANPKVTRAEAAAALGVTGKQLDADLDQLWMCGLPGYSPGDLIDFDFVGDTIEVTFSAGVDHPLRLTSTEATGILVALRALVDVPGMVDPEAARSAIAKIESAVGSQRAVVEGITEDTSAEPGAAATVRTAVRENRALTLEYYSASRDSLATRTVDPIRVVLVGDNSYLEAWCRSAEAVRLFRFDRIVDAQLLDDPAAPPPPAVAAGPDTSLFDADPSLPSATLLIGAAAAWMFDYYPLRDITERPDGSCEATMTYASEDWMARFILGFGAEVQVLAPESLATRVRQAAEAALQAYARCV

[3] = molecular target: T3, PafBC WT (Mycobacterium smegmatis, UniProt A4ZHT0;A0QZ41 1-331;1-318); experiment: EMSA; low micromolar affinity; ssDNA EMSA: 22.5 mM Hepes-KOH pH 7.8, 135 mM NaCl, 20 mM KCl, 5 mM MgCl2, 1 mM DTT, 37 C 15 min, 10 nM DNA, 0-16 uM PafBC; RNAP EMSA: 20 mM Hepes-NaOH pH 8, 100 mM K-acetate, 36 mM NaCl, 10 mM MgCl2, 2 mM DTT, 37 C 30 min
T3 sequence 1: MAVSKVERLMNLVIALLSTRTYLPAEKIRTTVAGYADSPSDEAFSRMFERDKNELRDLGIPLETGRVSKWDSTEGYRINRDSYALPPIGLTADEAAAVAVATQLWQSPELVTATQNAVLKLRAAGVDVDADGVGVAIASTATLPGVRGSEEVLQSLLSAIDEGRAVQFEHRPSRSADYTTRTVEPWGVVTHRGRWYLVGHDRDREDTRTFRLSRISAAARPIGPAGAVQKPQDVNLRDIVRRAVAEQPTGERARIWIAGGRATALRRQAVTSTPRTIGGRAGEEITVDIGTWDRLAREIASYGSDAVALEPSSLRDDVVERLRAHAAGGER
T3 sequence 2: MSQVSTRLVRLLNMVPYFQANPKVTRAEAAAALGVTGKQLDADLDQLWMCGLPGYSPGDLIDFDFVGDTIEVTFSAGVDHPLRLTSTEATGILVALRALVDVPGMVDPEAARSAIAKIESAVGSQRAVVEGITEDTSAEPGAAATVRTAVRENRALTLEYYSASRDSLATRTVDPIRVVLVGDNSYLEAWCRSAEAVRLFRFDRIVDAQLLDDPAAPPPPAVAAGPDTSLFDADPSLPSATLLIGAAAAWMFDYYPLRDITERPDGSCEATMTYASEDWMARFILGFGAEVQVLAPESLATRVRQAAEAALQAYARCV

B1: dT20 ssDNA (ssDNA)
DNA: TTTTTTTTTTTTTTTTTTTT
- binding result [1]: no binding
- binding result [2]: no binding
- binding result [3]: binds
